Data as given in the nanobody polyreactivity screen of Harvey et al. (2022).

Assay: yeast display, Sf9 membrane polyspecificity reagent, FACS + sequencing; frameworks hold sequencing errors
Summary of the method: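 Galactose induction of a Saccharomyces cerevisiae BJ5465 synthetic nanobody display library ran 36–48 hours. The cells were then stained for 1 hour at 4 °C with 10% biotinylated, detergent-solubilized Sf9 membrane reagent, pulled down on streptavidin microbeads and FACS-sorted into low and high (top ~1%) gates on expression and reagent-binding fluorescence. Labels for polyreactivity follow the gate of origin.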

Sequence | polyreactivity (PSR sort gate)
QVQLVESGGGLVQAGGSLRLSCAASGFIFRYYAMGWYRQAPGKERELVARINKSGGYTYYADSVKGRFTISRDNAKNTVYLQMNSLKPEDTAVYYCNRVRVFSVPFDYWGQGTQVTVSS | high polyreactivity
QVQLVDSGGGLVQAGGSLRLSCAASGYTILSYVMGWNRQAPGKERELVAAIRRSGGSTYYADSVKGRFTISRDNAKNTVYLQMNSLKPEDTAVYYCNAPHHRYDWGQGTQVTVSS | high polyreactivity
QVQLVESGGGLVQAGGSLRLISAASGSIFDEYAMGWYRQAPGKERELVAAISSSGTSTYYADSVKGRFTISRDNAKNTVYLQMNSLKPEYTAVYYCAARSAFLKSGYLMDYWGHGTQVTVSS | low polyreactivity
QVQLVESGGGLVQAGGSLRLSCAASGRIFWYNAMGWYRQAPGKERELVATITSAGDTNYADSVKGRFTISRDNAKNTVFLQMNSLKPEDTAVYYCAKYYRWLITRRGSNDYWGQGTQVTVSS | high polyreactivity
QVQLVESGGGLVQAGGSLRLSCAPSGSIFDCNAMGWYRQAPGKERELVAAISVSGGSTYYADSVKGRFTISRDNAKNTVYLQMNSLKPEDKAVYYCAAETWTDGWYYDYWGQGTQVTVSS | high polyreactivity
QVQLVESGGGLVQAGGSLRLSCAASGIIFHYYAMGWYRQAPGKERELVAAISGSGGSTYYADSVKGRFTISRDNAKNTVYLQMNSLKPEDTAVYYCAAKLWGGGGYWGQGTQVTVSS | high polyreactivity
QVQLVESGGGLVQAAGSLRLTCAASGRTFYDNVKGWYRQAPGKERELVAAISSGGSTNYADSVKGRFTISRDNAKNTVYLQMNSLKPEDTAVYYCATTGGGGWAYEYWGQGTQVTVSS | low polyreactivity
QVQLLESGGGLVQAGGSLRLTCAASGLTFSNYAMGWYRQAPGKERELVADIRSGGNTNYADSVKGRFTISRDNAKNTVYLQMNSLKPEDTAVYYCATDGYRIDVYHPDYRYDYWGQGTQVTVSS | low polyreactivity
QVQLVESGGGLVQAGGSLRLSCAASGYIFYANAMGWYRQPPGKERELVAAISWSGGSTYYADSVKGRFTISRDNAKNTVYLQMNSLKPEDTAVYYCAAAYYETPWDYYYWGQGTQVTVSS | low polyreactivity
QVQLVESGGGLVQAGGSLRLSCADSGRIICWYAMGWYRQAPGKERELVAAISTGSRTYYADSVKGRFTISRDNAKTTVYLQMNSLKPEDTAVYYCAASLYSGYVSWGQGTQVTVSS | low polyreactivity
QVQLVDSAGGLVQAGGTLRLSCADSGFTCSYYAMGWYRQAPGTERELVAAITSGGSTDYADSVKGRFTISRDNEKNTFYLQMHSLKPVDTAVFYCKITPYYAVFYYWGPGTQVTVSS | high polyreactivity
QVQLVESGGGLVQAGGSLRLSCAASGFIFHVYAMGWYRQAPGKEREFVAGISWRGGRTYYADSVKGRFTISRDNAKNTVYLLMNSLKPEDTAVYYCAALGLNAGGKFDYWGQGTQVTVSS | high polyreactivity
QVQLQESGGGLVQAGGSLRLSCAASGTISSSDAMGWYRQAPGKEREFVATIASGTTTYYADSVKGSFTISRDNAENSVYLQTNSLKPEDTAVYYCAAPTIQIYPFYYWGQGTQVTVSS | high polyreactivity
QVQLVESGGGLVQAGGSLRLSCAASGFIFLYYAMGWYRQAPGKERELVAAITTRGGRTYYADSVKGRFTISRDNAKNTVYLQMNSLKPEDTAVYYCAVQVSWSYYRYGYWGQGTQVTVSS | low polyreactivity
QVQLVESGGGLVQAGGSLRLSCAASGLIFQLYAMGWSRQAPGKERELLAAITIRDGSTYYADSVKGRFTISRDNAKNTVYFQMNSLKPEDTAFYFCAAEPVYYYPWSQYDYWGQGTQVTVSS | high polyreactivity
QVQLVESGGRLVQAGGSLRLICAASGSTFYPYAMGWYRQAPGKERELSTDADSVKGRFTISRDNAKNSVYLQMNSLKPEDTAVYYCAALHWRWYDYWGQGTQVTVSS | low polyreactivity
QVQLVESGGGLVQAGGSLRLRCAASGSTFRQYAMGWYRQAPGKERELVAAISSGGRTNYADSVKGRFTISRDNAKNTVYLQMNSLKPEDTAVYYCAADIRRRVPVRGYYYWGQGTQVTVSS | high polyreactivity
QVQLVESGGGLVQAGGSLRLSCAASGSIFWYNAMGWYRQAPGKERELVAGITSGGDTNYADSVKGRFTISRDNAKNTVYLQMNSLKPEDTAVYYCAKRWYGGRRYDYWGQGTQVTVSS | low polyreactivity
